Test results as given in the supplement of paper PMC10567573.

B1: C10orf62 (parent)
chain: TSECPSDKDKSPESHKAKNESWIK

Variants of: B1
Experiment: protein stability index of a GFP-peptide fusion (GPS, HEK-293T) (PSI 1-6); higher = more stable
Conditions: c terminus: a fixed tail appended
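Note: lentivirally expressed fusions sorted by FACS into six bins by GFP to DsRed ratio, PSI derived from sequencing read proportions per bin multiplied by bin number.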

Protein stability index, by site and new letter:
D9: H 3.18, W 2.98, Y 2.64, Q 3.27, C 2.46, K 2.25, G 3.42, R 2.62, P 3.39, L 2.54, M 3.28, S 3.11, N 2.94, E 3, V 2.9, T 3.34, F 2.16, A 2.68
K18: P 3.74, C 4.37, N 3.6, D 3.84, S 4.15, H 4.03, W 3.26, Q 3.9, M 3.77, F 4.09, G 3.9, Y 4.32, V 3.56, R 3.51, L 4.18, A 3.67, T 4.02, E 3.83, I 3.01
P5: M 3.08, Q 3.32, A 3.72, V 4.14, E 3.84, T 2.9, S 3, H 3.75, I 3.86, F 3.28, N 3.94, L 3.33, C 2.8, Y 3.59, W 3.04, D 3.84, K 3.24, G 3.41, R 3.45
A17: S 3.48, P 3.07, N 3.56, C 3.6, W 3.5, D 3.88, T 3.14, H 3.29, G 3.27, R 2.6, Q 3.64, Y 3.5, F 3.42, K 2.93, V 3.37, L 3.64, M 2.93, E 3.88, I 4.17
S14: Q 4.13, K 2.82, C 3.52, M 3.34, A 3.7, E 4.58, V 3.98, L 3.48, W 4, P 3.2, N 3.95, R 3.82, G 3.5, F 3.89, D 4.49, T 3.41, I 3.66, Y 3, H 3.71
N19: V 3.41, Y 3.11, Q 3.13, G 3.92, M 3.64, D 3.99, H 2.42, E 4.23, A 2.83, P 3.19, W 3.46, R 2.84, I 4.02, L 3.3, S 3.97, C 3.63, T 2.94, F 2.87
P12: W 2.37, K 2.86, M 3.19, F 2.44, Y 2.74, V 2.4, L 2.77, Q 3.79, E 3.15, R 1.66, H 3.44, N 3.3, T 3.54, S 2.54, A 2.87, I 3.21, C 3.62, G 3.48, D 3.83
E13: T 2.65, W 2.17, Q 3.34, N 3.43, C 3.35, I 2.44, V 2.77, G 2.89, S 3.2, F 2.94, H 3.02, M 2.65, R 2.82, P 2.63, L 2.21, D 2.98, A 2.77, K 3.08, Y 2.98
E3: V 2.87, W 2.63, Y 2.73
K16: E 4.94, L 3.37, N 3.67, F 3.85, Y 3.6, T 4.35, Q 3.29, R 3.02, W 3.33, G 3.58, A 4.49, I 3.92, V 3.95, M 3.85, S 3.79, P 4.62, H 3.8, D 4.2, C 3.75
K10: P 3.3, Y 2.94, C 3.95, S 3.41, Q 3.46, M 3.63, N 3.73, W 2.28, F 3.72, D 4.02, H 3.53, R 2.81, G 2.63, V 2.75, E 4, L 4.2, A 3.64, I 3.25, T 3.04
S6: N 3.76, Y 2.82, I 3.35, C 3.17, E 3.71, Q 3.75, P 3.37, V 3.27, F 3.34, A 4.02, M 2.94, W 2.71, K 2.95, D 3.51, G 3.62, T 2.92, R 2.75, H 3.56, L 3.82
S21: I 4.77, L 3.65, K 4.84, H 4.95, N 5.12, G 4.34, F 5.12, E 5.3, C 4.11, D 5.57, A 4.61, M 4.36
E20: W 4.72, G 4.3, S 4.29, H 4.51, K 4.37, I 4.38, M 3.05, R 4.09, C 4.47, T 4.39, F 4.74, P 4.83, Q 4.13, D 4.02, Y 4.2, L 4.56, A 5.18, N 4.69, V 3.77
S11: N 3.7, M 3.26, A 3.41, P 3.52, Q 1.92, E 3.67, C 3.31, L 3.04, I 3.2, T 3.85, H 3.01, V 2.96, G 3, R 2.92, D 2.29, K 3.81, Y 2.5, F 2.98, W 3.26
K8: S 3.84, W 2.99, G 4.03, L 3.38, P 3.38, T 3.45, R 3.95, V 3.62, D 3.35, F 3.68, N 3.31, C 3.52, Y 3.26, Q 3.52, M 3.52, I 3.48, H 3.15, A 3.08, E 4.41
D7: I 2.3, V 3.52, M 2.82, Q 3.2, G 3.38, E 2.57, F 2.84, H 2.88, L 2.81, C 3.2, R 2.35, P 3.6, T 3.14, N 3.11, W 2.58, Y 2.85, K 3.55, A 2.6
H15: Q 3.37, N 2.69, L 3.48, S 3.61, R 3.31, G 3.69, A 4.12, P 3.92, D 3.92, T 2.99, K 4.06, M 2.83, W 3.33, F 3, C 3.2, I 4.07, V 3.88, Y 3.35, E 3.84
C4: G 3.94, K 3.51, R 3.15, S 2.46, F 3.33, H 3.34, D 3.17, Q 3.52, A 3.53, P 3.39, E 3.55, N 3.4, T 3.28, W 2.58, I 3.92, L 3.74, M 3.79, Y 3.15
